The source of these data is patent publication US20240279290A1.

This assay deals with human CD40 on primary human B cells or monocyte-derived dendritic cells (human) (UniProt P25942). Put plainly: cell-based or functional assay.

“And” between values parts separate entries of the source, which are not always exact repeats. Equal entries are not always repeated.

Chain of human CD40 on primary human B cells or monocyte-derived dendritic cells (human) (P25942 21-277 H80K/K81H limits assumed): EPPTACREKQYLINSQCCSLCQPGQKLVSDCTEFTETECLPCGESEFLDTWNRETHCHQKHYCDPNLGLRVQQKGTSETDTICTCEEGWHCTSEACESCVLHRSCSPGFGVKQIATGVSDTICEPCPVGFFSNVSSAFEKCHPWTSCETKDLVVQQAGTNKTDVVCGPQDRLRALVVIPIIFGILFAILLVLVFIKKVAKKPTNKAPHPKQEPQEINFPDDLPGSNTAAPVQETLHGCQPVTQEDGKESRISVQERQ

Take “anti-CD40 monoclonal antibody corresponding to sequence 21.4.1 of U.S. Pat. No. 7,338,660 B2”: the EC50 [nM], % CD86, human B cells + FAP-CHO, w HSA is 0.88 nM and 0.3 nM; the EC50 [nM], % CD86, human B cells + FAP-CHO, w/o HSA was 1.9 nM and 0.51 nM; the EC50 [nM], MFI CD86, human B cells + FAP-CHO, w HSA is 0.51 nM and 2.05 nM; the EC50 [nM], MFI CD86, human B cells + FAP-CHO, w/o HSA is 1.13 nM and 4.73 nM. Further, the Efficacy [MFI at highest dose], MFI CD86, human B cells + FAP-CHO, w HSA is 1530 MFI and 1870 MFI; the Efficacy [MFI at highest dose], MFI CD86, human B cells + FAP-CHO, w/o HSA is 1340 MFI and 2060 MFI; the Efficacy [MFI at highest dose], MFI CD86, human B cells + WT-CHO (no FAP), w HSA was 1900 MFI and 1470 MFI; the Efficacy [MFI at highest dose], MFI CD86, human B cells + WT-CHO (no FAP), w/o HSA is 2050 MFI and 1390 MFI.
